According to patent US20200190192A1 (SUTRO BIOPHARMA, published 2020):
Substitutions are numbered along the chain they refer to. Names and notes keep the numbering of the source. Where two headings read alike, the source gives them in different places.

Legend:
[1] = molecular target: T1, human Tim-3 expressed on the cell surface (human, UniProt Q8TDQ0 22-301); assay: flow cytometry, CHO-human Tim-3 cells
T1 construct: also called hTim-3; Human Tim-3 (CHO)

[2] = molecular target: T2, recombinant cynomolgus Tim-3-Fc (R&D Systems, 7914-TM) (cynomolgus monkey); assay: ELISA, coated cyno Tim-3-Fc
T2 construct: Bought protein; also called cyTim-3-Fc; Cyno Tim-3-Fc; not shown: Fc of the bought fusion protein
T2 chain: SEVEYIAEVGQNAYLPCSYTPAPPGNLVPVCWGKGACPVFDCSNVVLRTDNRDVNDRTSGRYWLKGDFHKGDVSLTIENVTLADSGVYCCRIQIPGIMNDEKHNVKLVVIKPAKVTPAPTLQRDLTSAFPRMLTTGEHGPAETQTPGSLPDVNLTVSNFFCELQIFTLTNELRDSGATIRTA

[3] = molecular target: T3, recombinant human Tim-3-Fc (R&D Systems, 2365-TM) (human, UniProt Q8TDQ0 22-202, biotinylated in the Galectin-9 competition ELISA (sites not given)); assay: SPR Biacore, human Tim-3-Fc
T3 construct: Bought protein; also called huTim-3-Fc; biotinylated Tim-3-Fc; not shown: Fc of the bought fusion protein

[4] = molecular target: T1, human Tim-3 expressed on the cell …; assay: cell binding (flow cytometry; cells not given)
[5] = molecular target: T4, human Tim-3 (Biacore analyte; TIM-3-Fc or TIM-3-HIS, not said which) (human, UniProt Q8TDQ0 22-202); assay: SPR Biacore, human Tim-3 (Fc or HIS not said)
T4 construct: also called TIM-3 antigen; not shown: Fc or HIS tag

[6] = molecular target: T3, recombinant human Tim-3-Fc (R&D …); assay: competition ELISA, biotin-Tim-3-Fc vs coated Galectin-9
[7] = molecular target: T3, recombinant human Tim-3-Fc (R&D …); assay: ELISA, coated human Tim-3-Fc
[8] = molecular target: T5, human PD-1 expressed on CHO cells (human, UniProt Q15116 25-288); assay: flow cytometry, CHO-human PD-1 cells; set-up: Bmax: unit not given here
T5 construct: also called hPD-1; CHO-hPD-1

[9] = molecular target: T1, human Tim-3 expressed on the cell …; assay: flow cytometry, CHO-human Tim-3 cells; set-up: Bmax: unit not given here
[10] = molecular target: T6, biotinylated recombinant human PD-1 (AcroBiosystems) (human, UniProt Q15116 25-167, limits assumed, biotinylated (sites not given)); assay: competition, flow cytometry: biotin-PD-1 binding to CHO-human PD-L1 cells
T6 construct: Bought protein; also called biotinylated PD-1

[11] = molecular target: T4, human Tim-3 (Biacore analyte; TIM-3-Fc …); assay: SPR, Tim-3 analyte
[12] = molecular target: T1, human Tim-3 expressed on the cell …; assay: flow cytometry, CHO-human Tim-3 cells; remark: listed apart in the source
[13] = molecular target: T3, recombinant human Tim-3-Fc (R&D …); assay: SPR Biacore, human Tim-3 Fc; KD estimated;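 for koff: antibodies captured on an anti-FLAG sensor surface, Tim-3-Fc flowed over as analyte at 25 °C in HBS-EP+ buffer, rates fit with a 1:1 Langmuir model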
[14] = molecular target: T7, cynomolgus Tim-3 expressed on CHO cells (cynomolgus monkey); assay: flow cytometry, CHO-cyno Tim-3 cells
T7 construct: also called cTim-3; Cyno Tim-3 (CHO)
T7 chain: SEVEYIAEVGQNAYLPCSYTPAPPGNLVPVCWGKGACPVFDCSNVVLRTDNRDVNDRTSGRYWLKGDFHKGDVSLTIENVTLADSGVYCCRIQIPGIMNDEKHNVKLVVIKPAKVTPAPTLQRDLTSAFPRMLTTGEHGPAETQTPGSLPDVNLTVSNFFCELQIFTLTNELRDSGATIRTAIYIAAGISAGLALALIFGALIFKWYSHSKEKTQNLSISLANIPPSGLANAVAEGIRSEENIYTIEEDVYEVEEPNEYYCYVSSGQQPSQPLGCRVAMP

[15] = molecular target: T3, recombinant human Tim-3-Fc (R&D …); assay: competition ELISA, biotin-Tim-3-Fc vs coated Galectin-9; remark: listed apart in the source
[16] = molecular target: T1, human Tim-3 expressed on the cell …; assay: flow cytometry, activated human CD4+ T cells
[17] = molecular target: T3, recombinant human Tim-3-Fc (R&D …); assay: SPR Biacore, human Tim-3 Fc;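 note: antibodies captured on an anti-FLAG sensor surface, Tim-3-Fc flowed over as analyte at 25 °C in HBS-EP+ buffer, rates fit with a 1:1 Langmuir model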
[18] = molecular target: PD-1 (SPR analyte of the PD-1 kinetics) (Homo sapiens (Human), UniProt Q15116 25-167, limits assumed); assay: SPR, PD-1 kinetics
[19] = molecular target: T5, human PD-1 expressed on CHO cells; assay: hPD-1 binding titration (format not named; taken as cell binding)

B1: SRP1497-A05 (antibody, V domains shown)
VH: EVQLVESGGGLVQPGGSLRLSCAASGFNISNYAIHWVRQAPGKGLEWVADITPDGGYTDYADSVKDRFTISADTSKNTAYLQMNSLRAEDTAVYYCARGYVYRMWDSFDYWGQGTLVTVSS
VL: not shown
notes: IgG with trastuzumab LC; HIS- and FLAG-tagged
Kd [1]: 0.5 nM | EC50 [2]: 6.19 nM | Kd [3]: 2.27 nM | koff [3]: 0.000458 s⁻¹ | kon [3]: 202000 M⁻¹ s⁻¹ | Kd [4]: 5.6 nM | Kd [5]: 64.7 nM | koff [5]: 0.0219 s⁻¹ | kon [5]: 338000 M⁻¹ s⁻¹ | IC50 [6]: 1.1 nM | EC50 [7]: 0.24 nM

B2: 1353-G10 scFvFc-zwB × 1649-A01 Fab-zwA (parent) (bispecific antibody)
scFv: not shown
VH: B1 VH with N31R, A33Y, D50G, D54V, G55R, D59E, F108Y
VL: not shown
notes: Tim-3 heavy chain carries zwA (T350V/L351Y/F405A/Y407V) in CH3
Bmax [8]: 13300 | Kd [8]: 1.4 nM | Bmax [9]: 14700 | Kd [9]: 3.9 nM | IC50 [10]: 191 nM | Kd [11]: 12 nM

B3: 1353-G10 scFvFc-zwB × 1649-A01 Hc zwA S30D/TrstmbLC S56D (bispecific antibody)
scFv: not shown
VH: B1 VH with S30D, N31R, A33Y, D50G, D54V, G55R, D59E, F108Y
VL: not shown
notes: Tim-3 heavy chain with zwA CH3 mutations
Bmax [8]: 12500 | Kd [8]: 1.3 nM | Bmax [9]: 11700 | Kd [9]: 3.2 nM | IC50 [10]: 128 nM | Kd [11]: 7.1 nM

B4: 1353-G10 scFvFc-zwB × 1649-A01 Hc zwA S30D/R31D/TrstmbLC S56D (bispecific antibody)
scFv: not shown
VH: B1 VH with S30D, N31D, A33Y, D50G, D54V, G55R, D59E, F108Y
VL: not shown
notes: as for B3
Bmax [8]: 9860 | Kd [8]: 1.1 nM | Bmax [9]: 10500 | Kd [9]: 3.7 nM | IC50 [10]: 138 nM | Kd [11]: 8.7 nM

B5: SRP1497-A01 (antibody, V domains shown)
VH: B1 VH with D66G
VL: not shown
notes: IgG with trastuzumab LC, cell-free expressed; constructs were HIS- and FLAG-tagged
EC50 [2]: 22.6 nM | Kd [3]: 2.15 nM | koff [3]: 0.000425 s⁻¹ | kon [3]: 197000 M⁻¹ s⁻¹ | Kd [4]: 1.17 nM | IC50 [6]: 0.8 nM | EC50 [7]: 0.3 nM

B6: 1353-G10 scFvFc-zwB × 1649-A01 Hc zwA S30D/R31D/Y56D/TrstmbLC S56D (bispecific antibody)
scFv: not shown
VH: B1 VH with S30D, N31D, A33Y, D50G, D54V, G55R, Y57D, D59E, F108Y
VL: not shown
notes: as for B3
Bmax [8]: 13000 | Kd [8]: 2.1 nM | Bmax [9]: 10900 | Kd [9]: 4.3 nM | IC50 [10]: 147 nM | Kd [11]: 11 nM

B7: 1353-G10 scFvFc-zwB × 1649-A01 Hc zwA R31D/TrstmbLC S56D (bispecific antibody)
scFv: not shown
VH: B1 VH with N31D, A33Y, D50G, D54V, G55R, D59E, F108Y
VL: not shown
notes: as for B3
Bmax [8]: 14000 | Kd [8]: 2.7 nM | Bmax [9]: 11300 | Kd [9]: 3.5 nM | IC50 [10]: 117 nM | Kd [11]: 8.6 nM

B8: 1353-G10 scFvFc-zwB × 1649-A01 Hc zwA R31D/Y56D/TrstmbLC S56D (bispecific antibody)
scFv: not shown
VH: B1 VH with N31D, A33Y, D50G, D54V, G55R, Y57D, D59E, F108Y
VL: not shown
Bmax [8]: 12600 | Kd [8]: 1.6 nM | Bmax [9]: 11400 | Kd [9]: 3.3 nM | IC50 [10]: 148 nM | Kd [11]: 8.8 nM

B9: SRP1497-A02 (antibody, V domains shown)
VH: B1 VH with Q13R, D66G
VL: not shown
notes: as for B1
EC50 [2]: 13.7 nM | Kd [3]: 2.95 nM | koff [3]: 0.000544 s⁻¹ | kon [3]: 185000 M⁻¹ s⁻¹ | Kd [4]: 1.54 nM | IC50 [6]: 1 nM | EC50 [7]: 0.34 nM

B10: 1353-G10 scFvFc-zwB × 1649-A01 Hc zwA S30D/Y56D/TrstmbLC S56D (bispecific antibody)
scFv: not shown
VH: B1 VH with S30D, N31R, A33Y, D50G, D54V, G55R, Y57D, D59E, F108Y
VL: not shown
notes: Tim-3 heavy chain with zwA CH3 mutations; also called 1649-A01 Hc zwA S30D/Y56D/TrsimbLC S56D
Bmax [8]: 9650 | Kd [8]: 1.2 nM | Bmax [9]: 10000 | Kd [9]: 3.6 nM | IC50 [10]: 108 nM | Kd [11]: 9.7 nM

B11: h22E11-VK4-1 × h22E11-VH3-23 (antibody, V domains shown)
VH: EVQLLESGGGLVQPGGSLRLSCAVSGFSLTSYGVHWVRQAPGKGLEWLVVIWSDGSTTYNDSVKGRFTISKDNSKNTVYLQMNSLRAEDTAVYYCARQGGYRYDDAMDYWGQGTLVTVSS
VL: DIVLTQSPDSLAVSLGERATINCKASQSVDYDGNSYVNWYQQKPGQPPKLLIYAASNLESGVPDRFSGSGSGTDFTLTISSLQAEDVAVYYCQQSNEDPYTFGQGTKVEIK
notes: Humanized m22E11
Kd [12]: 0.9 nM | Kd [13]: 5 nM | Kd [14]: 4.6 nM | IC50 [15]: 0.67 nM | Kd [16]: 0.9 nM | koff [17]: 0.000875 s⁻¹

B12: h22E11-VK3-11 × h22E11-5-IgG-HC (antibody, V domains shown)
VH: B11 VH with L5V, D61S, S62A, V63L, G65S, S74A, T77S
VL: EIVLTQSPATLSLSPGERATLSCKASQSVDYDGNSYVNWYQQKPGQAPRLLIYAASNLESGIPARFSGSGSGTDFTLTISSLEPEDFAVYYCQQSNEDPYTFGQGTKVEIK
notes: Humanized m22E11
Kd [12]: 0.8 nM | Kd [13]: 5.9 nM | Kd [14]: 5.3 nM | IC50 [15]: 0.64 nM | Kd [16]: 1.1 nM | koff [17]: 0.00104 s⁻¹

B13: h22E11-5-IgG-LC × h22E11-5-IgG-HC (antibody, V domains shown)
VH: B11 VH with L5V, D61S, S62A, V63L, G65S, S74A, T77S
VL: B12 VL with A9G, N38A, A64D, S81R
notes: Humanized m22E11; also called h22E11-5 IgG (lot 2)
Kd [12]: 1 nM | Kd [13]: 6.8 nM | IC50 [15]: 0.77 nM | koff [17]: 0.0011 s⁻¹

B14: 1353-G10 wt IgG (antibody, V domains shown)
VH: EVQLVQSGAEVKKPGASVKVSCKASGYRFPHYGISWVRQAPGQGLEWMGWISAYNGNTNYAQKLQGRVTMTTDTSTNTAYMELRSLRSDDTAVYYCARDVDYGTGSGYWGQGTLVTVSS
VL: SYELTQPPSVSVSPGQTARITCSGDALPKQYAYWYQQKPGQAPVMVIYKDTERPSGIPERFSGSSSGTKVTLTISGVQAEDEADYYCQSADNSITYRVFGGGTKVTVL
notes: IgG; also called Sample I
Kd [18]: 0.96 nM | koff [18]: 0.00059 s⁻¹ | kon [18]: 620000 M⁻¹ s⁻¹ | Bmax [19]: 2980 | Kd [19]: 0.1 nM

B15: 1353-G10 vk1-39 LC IgG (antibody, V domains shown)
VH: B14 VH
VL: DIQLTQSPSSLSASVGDRVTITCSGDALPKQYAYWYQQKPGKAPKLLIYKDTERPSGVPSRFSGSSSGTKVTLTISSLQPEDFATYYCQSADNSITYRVFGGGTKVEIK
notes: IgG; also called Sample K
Kd [18]: 0.85 nM | koff [18]: 0.00049 s⁻¹ | kon [18]: 580000 M⁻¹ s⁻¹ | Bmax [19]: 3630 | Kd [19]: 0.8 nM

B16: 1353-G10 H1 HC IgG (antibody, V domains shown)
VH: B14 VH with R28T, P30D, H31S
VL: B14 VL
notes: IgG; also called Sample J
Kd [18]: 2.3 nM | koff [18]: 0.0026 s⁻¹ | kon [18]: 1.1e+06 M⁻¹ s⁻¹ | Bmax [19]: 3410 | Kd [19]: 0.5 nM
